Experimental data published in patent US20160340442A1 (Dana-Farber, published 2016).

T1: bacterially-produced MUC1-C/ECD protein (human, UniProt P15941 1098-1155)
T1 construct: Produced in bacteria; also called MUC1 proteins made in bacteria; p58-mFc
T1 sequence: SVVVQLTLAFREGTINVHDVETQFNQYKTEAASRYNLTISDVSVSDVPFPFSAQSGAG

T2: MUC1-C/ECD-hFc (human, UniProt P15941 1098-1155)
T2 construct: The screening text says the antigen was MUC1-C/ECD-mFc or MUC1-C/ECD-hFc; the hFc form is used here because hFc alone was the negative control; also called hFc-MUC1-C/ECD; MUC1-ECD-hFc; not shown: human Fc (hFc)
T2 sequence: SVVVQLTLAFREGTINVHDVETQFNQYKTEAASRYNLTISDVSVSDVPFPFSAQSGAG

T3: P1 (human)
T3 construct: Synthetic overlapping peptide of MUC1-C/ECD; also called peptide P1
T3 peptide: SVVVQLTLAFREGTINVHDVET

T4: P3 (human)
T4 construct: Synthetic overlapping peptide of MUC1-C/ECD; also called peptide P3
T4 peptide: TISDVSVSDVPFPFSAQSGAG

T5: P2 (human)
T5 construct: Synthetic overlapping peptide of MUC1-C/ECD; also called peptide P2
T5 peptide: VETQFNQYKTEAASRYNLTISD

T6: cell surface MUC1-C protein (human, UniProt P15941 1098-1255)
T6 construct: MUC1-C subunit as carried by MUC1-positive cell lines and patient cells (or in their lysates for Western blot); also called MUC1 C-ter; MUC1 on MUC1-positive cells
T6 sequence: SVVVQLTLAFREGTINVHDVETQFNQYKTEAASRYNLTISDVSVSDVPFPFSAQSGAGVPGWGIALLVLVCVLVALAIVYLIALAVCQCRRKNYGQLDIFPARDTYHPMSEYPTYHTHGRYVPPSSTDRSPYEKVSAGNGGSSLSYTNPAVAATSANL

T7: MUC1-C/ECD protein (human, UniProt P15941 1098-1155)
T7 construct: also called MUC1-C/ECD antigen; the antigen
T7 sequence: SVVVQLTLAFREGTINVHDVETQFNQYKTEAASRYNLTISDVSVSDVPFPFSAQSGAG

T8: MUC1-CQC→AQA mutant (human, UniProt P15941 1098-1255)
T8 construct: also called HCT116/MUC1-CQC→AQA mutant cells
T8 chain: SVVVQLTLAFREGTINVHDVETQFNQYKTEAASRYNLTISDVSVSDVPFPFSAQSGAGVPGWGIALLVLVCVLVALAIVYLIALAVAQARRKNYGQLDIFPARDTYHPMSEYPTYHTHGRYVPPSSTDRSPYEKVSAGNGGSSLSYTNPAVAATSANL


Assays:
[1] = molecular target: T1, bacterially-produced MUC1-C/ECD protein; test: Western blot
[2] = molecular target: T2, MUC1-C/ECD-hFc; test: hybridoma screen, indirect ELISA or Western blot; antigen MUC1-C/ECD-mFc or MUC1-C/ECD-hFc
Experimental: ELISA. ELISA was performed by coating the plates with 100 μl of 1 μg/ml MUC1-C/ECD-hFc or MUC1-C/ECD-mFc or hFc (as negative control). Hybridoma supernatants or immune sera were screened against the coated proteins by incubating with the plate for 1 hr. The bound antibody was detected by incubating with specific secondary antibody (anti-mouse Ig, F(ab)₂ specific) conjugated to HRP (horse radish peroxidase). Further, the reaction was developed with HRP-specific substrate for 30 min and the plate was read at 405 nm.
Fusion for Hybridoma and Primary Screening. Based on the results obtained from the ELISA, spleen from both mice was used for fusion with myeloma cells to generate hybridoma. Spleen-myeloma fusion was performed by mixing mouse myeloma cells sp2/0-Ag14 and splenocytes in 1:3 ratio in the presence of polyethylene glycol (PEG). Post fusion cell culture was carried out in selective HAT medium. Hybridomas selected by indirect ELISA or Western blot using recombinant MUC-C/ECD-mFc or MUC1-C/ECD-hFc as the antigen and were subjected to subcloning by limiting dilution protocol until the clones become stable. The fusion clones obtained from the spleen of mouse 1 is termed as 315.1 clones and similarly the one from mouse 2 is called 315.2 clones. The fusion clones obtained from the spleen of mouse 1 from other immunization batch is termed as 384 clones. […]

[3] = molecular target: T3, P1; test: ELISA, peptide as competitor (indirect: peptide did not inhibit binding to the antigen)
[4] = molecular target: T4, P3; test: as above
[5] = molecular target: T5, P2; test: as above
[6] = molecular target: T6, cell surface MUC1-C protein; test: flow cytometry, ZR-75-1, MCF-7 and HCT-116/MUC1 cells
Description: FIG. 35. […] Reactivity was detected by immunofluorescence FACScan.
FIG. 36. […] Reactivity was detected by immunofluorescence FACScan.

[7] = molecular target: T7, MUC1-C/ECD protein; test: ELISA, plates coated with the antigen, multiple antibody concentrations
Experimental: FIG. 38. ELISA assays were performed by coating plates with the antigen and reactivity with multiple different concentrations of purified antibodies 7B8, 4G5 and 2B11.

[8] = molecular target: T6, cell surface MUC1-C protein; test: surface staining, flow cytometry, K562 CTL-siRNA cells; 2 µg antibody/sample; fixed samples kept at 4° C. for 4 days
[9] = molecular target: T6, cell surface MUC1-C protein; test: surface staining, flow cytometry, K562 CML cells; 2 µg antibody/sample
[10] = molecular target: T6, cell surface MUC1-C protein; test: surface staining, flow cytometry, K562 MUC1-siRNA cells (MUC1 silenced); 2 µg antibody/sample
[11] = molecular target: T6, cell surface MUC1-C protein; test: surface staining, flow cytometry, KU812 CML cells; 2 µg antibody/sample
[12] = molecular target: T6, cell surface MUC1-C protein; test: surface staining, flow cytometry, ZR-75-1 cells (third row); 2 µg antibody/sample
[13] = molecular target: T6, cell surface MUC1-C protein; test: cell-based or functional assay
[14] = molecular target: T6, cell surface MUC1-C protein; test: flow cytometry, ZR-75-1 cells, competitive format with purified MUC1-C/ECD protein; 7B8 binding not abrogated
Experimental: Characterized of 7B8 and 3D1 antibodies. Linear epitope mapping of 7B8 and 3D1 clones was performed using three overlapping peptides spanning the entire MUC1-C/ECD region (58 amino acids) were synthesized. ELISA assays were performed using 7B8 or 3D1 purified antibodies in the presence or absence of P1, P2 or P3 peptides. […] Conformational epitope mapping of 7B8 and 3D1 was performed using eight critical individual point mutants in the MUC1-C/ECD region by ELISA. […] These findings indicate that D19 is a part of the conformational core/pocket for 3D1 binding. ZR-75-1 breast carcinoma cells were used determine 7B8 or 3D1 antibody binding in a competitive format with MUC1-C/ECD and analyzed by FLOW. […] These findings indicate that the conformational binding epitopes of 7B8 and 3D1 are different. The sequencing results for hybridoma 3D1 is shown in FIG. 50 and is discussed in greater detail below.

[15] = molecular target: T8, MUC1-CQC→AQA mutant; test: flow cytometry, HCT116/MUC1-CQC→AQA mutant cells
Experimental: FIG. 37. HCT116/MUC1-wild-type and HCT116/MUC1-CQC→AQA mutant cells 7B8 for 30 min, washed, incubated with goat anti-mouse immunoglobulin-flourescein-conjugated antibody (Santa Cruz Biotechnology), and fixed in 1% formaldehyde/PBS. Reactivity was detected by immunofluorescence FACScan.

[16] = molecular target: T7, MUC1-C/ECD protein; test: ELISA, plates coated with the MUC1-C/ECD antigen

binding result [3]	binding result [4]	binding result [5]	flow cytometry value (unit not given) [8]	flow cytometry value (unit not given) [9]	flow cytometry value (unit not given) [10]	flow cytometry value (unit not given) [11]	flow cytometry value (unit not given) [12]	Binder	also measured
–	–	–	22.6	9.31	6.26	31.6	2.16	315.1.6A6.C11.G5 (antibody, V domains shown, also called MAb 6A6; Clone 6A6) VH: QVQLKESGPGLVAPSQSLSMTCTVSGFSLTTYGVHWVRQPPGKGLEWLVVIWSDGSTTYNSPLKSRLSISRDNSKSQVFLKMNSLQADDTAIYYCAKNYLGSLDYWGQGTSVTVSS VL: DVVLTQTPLSLPVSLGDQASISCRSSQSLVHNNGDTYLHWYLQKPGQSPKLLIYKVSNRFSGVPDRFSGSGSGTDFTFKISRVEAEDLGVYFCSQTTHVPLTFGAGTKLELK	–
–	–	–	22.4	8.65	6.91	39.6	1.61	315.2.8E1.F7.C3.H7.H8.F5 (antibody, V domains shown, also called MAb 8E1; Clone 8E1) VH: EVQLVESGGGLVQPGESLKLSCESNEYEFPSHDMSWVRKTPEKRLELVAAINSDGGSTYYPDTMERRFIISRDNTKKTLYLQMSSLRSEDTALYYCVRLYYGNVMDYWGQGTSVTVSS VL: DVVMTQTPLSLPVSLGDQASISCRSSQSLVHSNGNTYLYWYLQKPGQSPKLLIYKVSNRFSGVPDRFSGSGSGTDFTLKISRVEAEDLGVYFCSQSTHVPLTFGAGTKLELK	–
–	–	–	34.4	9.58	6.37	39.9	1.57	315.2.8F1.D2.D1 (antibody, V domains shown, also called Clone 8F1; P58-8F1) VH: EVQLVESGGGLVQPGESLKLSCESNEYEFPSHDMSWVRKTPEKRLELVAAINSDGGSTYYPDTMERRFIISRDNTKKTLYLQMSSLRSEDTALYYCVRLYYGNVMDYWGQGTSVTVSS VL: DVVMTQTPLSLPVSLGDQASISCRSSQSLVHSNGNTYLYWYLQKPGQSPKLLIYKVSNRFSGVPDRFSGSGSGTDFTLKISRVEAEDLGVYFCSQSTHVPLTFGAGTKLELK	–
no binding	no binding	no binding	–	–	–	–	–	400.6.7B8.G3.G1 (antibody, IgG2a, V domains shown) VH: QVQLQQPGAELVKPGASEKLSCKASGHTFTSYWMHWVKQRPGQGLEWIGEINPSNGRTYYNENFKTKATLTVDKYSSSASMQLRSLTSEDSAVYYCASDGDYVSGFAYWGQGTTLTVSS VL: DIVLTQSPGSLAVSLGQSVTISCRASESVQYSGTSLMHWYQQKPGQPPKLLIYGASNVETGVPARFSGSGSGTDFSLNIHPVEEDDIAMYFCQQNWKVPWTFGGGTKLEIK	binding result [14]: binds; binding result [15]: binds; binding result [16]: binds

The next lines start with the binder.

Binder	binding result [3]	binding result [4]	binding result [5]	flow cytometry value (unit not given) [8]	flow cytometry value (unit not given) [9]	flow cytometry value (unit not given) [10]	flow cytometry value (unit not given) [11]	flow cytometry value (unit not given) [12]	also measured
384.1.2H11.F2.G6 (antibody, V domains shown, The printed entries run a few residues into the constant regions; also called 384.2H11.F2.G6) VH: QIQLVQSGPELKKPGETVKTSCKASGYTFTGYSMHWVKQAPGKGLKWMGWINTETGEPTYADDFKGRFALSLETSASTTYLQINNLKNEDTATYFCVRGTGGDDWGQGTTLTVSS VL: DVVMTQTPLSLPVSLGDQASISCRSSQSLVHSNGNTYLHWYLQKPGQSPKLLIYKVSNRFSGVPDRFSGSGSGTDFTLKINRVEAEDLGVYFCSQGTHVPPTFGGGTKLEIKR	–	–	–	–	–	–	–	–	binding result [1]: binds; binding result [2]: binds
400.6.2B11.D5.F6 (antibody, IgG1, V domains shown) VH: QVQLQQSGAELMKPGASVKISCKAIGFTFNYFWIEWVKQRPGHGLEWIGEILPGTGSTNYNEKFKGKAIFTADTSSNTAYMQLRSLTSEDSAVYYCVRYDYTSSMDYWGQGTSVTVSS VL: NIVMTQSPKSMSMSVGERVTLTCKASENVGTYVSWYQQKPEQSPKLLIYGASNRYTGVPNRFTGSGSATDFTLTISSVQAEDLADYYCGQSYSYPWTFGGGTKLEIK	no binding	no binding	no binding	–	–	–	–	–	binding result [6]: binds; binding result [7]: binds
7B8-MMAF (other, monomethyl auristatin F (MMAF) via cleavable linker valine-citrulline-p-aminobenzyl (Val-Cit-PAB); attachment residues not stated) VH: QVQLQQPGAELVKPGASEKLSCKASGHTFTSYWMHWVKQRPGQGLEWIGEINPSNGRTYYNENFKTKATLTVDKYSSSASMQLRSLTSEDSAVYYCASDGDYVSGFAYWGQGTTLTVSS VL: DIVLTQSPGSLAVSLGQSVTISCRASESVQYSGTSLMHWYQQKPGQPPKLLIYGASNVETGVPARFSGSGSGTDFSLNIHPVEEDDIAMYFCQQNWKVPWTFGGGTKLEIK	–	–	–	–	–	–	–	–	dose-dependent inhibition of proliferation in ZR-75-1 breast carcinoma cells, IC50 [13]: ~0.86 nM
400.6.4G5.E11.G2 (antibody, IgG1, V domains shown) VH: QITLKESGPGILQPSQTLSLTCSFSGFSLSTSGMGVSWIRQPSGKGLEWLSHIYWDDDKRYNPSLKSRLSISKDTSRNQVFLKITSVDTADTATYYCAPGVSSWFPYWGPGTLVTVSA VL: SIVMTQTPKFLPVSAGDRVTVTCKASQSVGNYVAWYQQKPGQSPKLLIYFASNRYSGVPDRFTGSGSGTDFTFTISSVQVEDLAVYFCQQHYIFPYTFGSGTKLEIK	no binding	no binding	no binding	–	–	–	–	–	binding result [6]: binds; binding result [7]: binds
